Reference: patent US20240158503A1 (PIERRE FABRE MEDICAMENT, published 2024)

B1: SA2281 (full-length human anti-VSIG4 monoclonal antibody, IgG form) (antibody, V domains shown)
VH: QVQLVESGGGVVQPGRSLRVSCAASGFTFSTYAMHWVRQAPGKGLEWLAVVSHDGTYKYYGDSVKGRFSISRDNSKNTLYLQMNSLRSEDTAVYYCGRHAAGSSFDYWGQGTVVTVSS
VL: DIQMTQSPSSLSASVGDRVTITCQASRDISNYLNWYQQKPGKAPKLLIYKTSNLQRGVPSRFSGSGSGTEFTLTISRLQPDDSATYYCQQSYRTPYTFGQGTKLEIK
notes: also called Mab SA2281
B2: SA2281 scFv-phage (original scFv version of SA2281) (scFv, V domains shown)
VH: B1 VH
VL: B1 VL
B3: SA2297 (full-length human anti-VSIG4 monoclonal antibody, IgG form) (antibody, V domains shown)
VH: QVQLVESGGGVVQPGGSLRLSCAASGFIFSDYYMSWVRQAPGKGLEWVSYISPSGYTISYADSVKGRFTISRDNSKNSLYLQMNSLRAEDTAVYYCARRFSSSWSGYFDYWGHGALVTVSS
VL: DIQMTQSPSTLSASVGDRVTITCRASQNINRWLAWYQQKPGKAPKLLIYKAFRLHSGVPSRFSGSGSGTEFTLTITSLQPDDFATYYCQQYLSYSSSIFGQGTKVEIK
notes: also called Mab SA2297
B4: SA2297 scFv-phage (original scFv version of SA2297) (scFv, V domains shown)
VH: B3 VH
VL: B3 VL

Key:
[1] = target: T1, human His-tagged VSIG4 short isoform (K00400002-BR1-117) (human, UniProt Q9Y279 20-283); experiment: HTRF competition: His-tagged VSIG4 short isoform with iC3b
T1 construct: also called hVSIG4-His (short form); not shown: His tag (detected with anti-6His)

[2] = target: T2, human VSIG4 overexpressed on HEK293E cells (human, UniProt Q9Y279 20-399); experiment: flow cytometry on HEK293E cells expressing human VSIG4, antibody titration
T2 construct: whole, on cells; also called hVSIG4/HEK293E; huVSIG4

[3] = target: T1, human His-tagged VSIG4 short isoform …; experiment: HTRF competition: His-tagged VSIG4 short isoform with C3b-d2
[4] = target: T3, hVSIG4(S)-hFc (VSIG4(S)-Fc) (human); experiment: western blot, 100 ng hVSIG4 short-hFc
T3 construct: also called hVSIG4 short-hFc (S); VGIG4(S)-Fc

VSIG4-M7-Fc = target: T4, VSIG4-M7-Fc (human); experiment: scFv-phage ELISA on coated Fc fusion (100 ng/well)
T4 construct: 78; Leader left out; 79

VSIG4-M1-Fc = target: T5, VSIG4-M1-Fc (human); experiment: scFv-phage ELISA on coated Fc fusion (100 ng/well), anti-M13-HRP, A490
T5 construct: Short form carrying E24T, V25A, E27H, V29L, T30A; Structure [LS]-QGAVGA-[VSIG4]-LAASAAS-[FC], leader left out; 61

VSIG4-M5-Fc = target: T6, VSIG4-M5-Fc (human); experiment: as above
T6 construct: 72; Leader left out; 73

VSIG4-M4-Fc = target: T7, VSIG4-M4-Fc (human); experiment: as above
T7 construct: 69; Leader left out; 70

VSIG4-M8-Fc [5] = target: T8, VSIG4-M8-Fc (human); experiment: as above
T8 construct: 81; Leader left out; 82

[6] = target: T9, hVSIG4-Fc (long VSIG4 form, epitope-mapping construct) (human); experiment: as above
T9 construct: 55

VSIG4-M2-Fc = target: T10, VSIG4-M2-Fc (human); experiment: as above
T10 construct: 63; Leader left out; 64

[7] = target: T11, hVSIG4-V-Fc (short VSIG4 form, epitope-mapping construct) (human); experiment: as above
T11 construct: 58; All M1-M8 mutations were made in this short form

VSIG4-M6-Fc = target: T12, VSIG4-M6-Fc (human); experiment: as above
T12 construct: 75; Leader left out; 76

VSIG4-M3-Fc = target: T13, VSIG4-M3-Fc (human); experiment: as above
T13 construct: 66; Leader left out; 67

VSIG4-M8-Fc [8] = target: T8, VSIG4-M8-Fc; experiment: scFv-phage ELISA on coated Fc fusion (100 ng/well)

Binder | IC50 [1] [nM] | EC50 [2] [nM] | IC50 [3] [nM] | binding result [4] | binding result (VSIG4-M7-Fc) | binding result (VSIG4-M1-Fc) | binding result (VSIG4-M5-Fc) | binding result (VSIG4-M4-Fc) | binding result (VSIG4-M8-Fc [5]) | binding result [6] | binding result (VSIG4-M2-Fc) | binding result [7] | binding result (VSIG4-M6-Fc) | binding result (VSIG4-M3-Fc) | binding result (VSIG4-M8-Fc [8])
B1 | 9.5 | 0.461 | 7.3 | binds | – | – | – | – | – | – | – | – | – | – | –
B2 | – | – | – | – | no binding | binds | binds | binds | binds | binds | binds | binds | binds | binds | –
B3 | 17.9 | 1.18 | 16.4 | binds | – | – | – | – | – | – | – | – | – | – | –
B4 | – | – | – | – | no binding | binds | binds | binds | – | binds | binds | binds | binds | binds | no binding
